{"source": "paper PMC4102245", "about": "“A molecular model for the role of SYCP3 in meiotic chromosome organisation” (eLife, 2014)", "binders": {"B1": {"name": "60 bp FAM-dsDNA (dsDNA)", "DNA 1": "ATGGTGTGTGTAGGTTAATGTGAGGAGGAGAGGTGAAGAAGGAGGAGAGAAGAAGGAGGC", "DNA 2": "GCCTCCTTCTTCTCTCCTCCTTCTTCACCTCTCCTCCTCACATTAACCTACACACACCAT"}}, "target": "T1, SYCP3 dCt6 dBP1+2 (human, UniProt Q8IZU3 1-230, K52A;R53A;R54A;K55A;K56A;R57A;K88A;R89A;K90A;R91A)", "T1 sequence": "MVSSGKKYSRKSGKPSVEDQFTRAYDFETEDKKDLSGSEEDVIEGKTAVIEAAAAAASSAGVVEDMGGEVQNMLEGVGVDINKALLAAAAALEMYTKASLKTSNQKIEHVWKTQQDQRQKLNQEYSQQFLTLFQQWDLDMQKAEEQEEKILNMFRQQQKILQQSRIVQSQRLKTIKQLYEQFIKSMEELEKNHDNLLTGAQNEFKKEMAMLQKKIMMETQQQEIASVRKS", "test": "fluorescence anisotropy; up to 20 uM protein; 20 mM Tris pH 8.0, 150 mM KCl; FA at 25 C with 25 nM DNA (0-20 uM protein); EMSA 5 min at 4 C with 18.7 uM (per bp) DNA (0-40 uM protein), 0.5% agarose, 0.5x TBE", "conditions": "protein: recombinant; tags: N-terminal His6, TEV-cleaved; chain copies: 4; label: 5' FAM", "data": [{"binder": "B1", "values": [{"measurement": "binding result", "result": "no binding"}]}]}
